Legend:
[1] = target: T1, SARS-CoV-2 Spike Protein (RBD)(R319-F541).mmH (SARS-CoV-2); assay: Luminex bead binding, supernatant; settings: remark: other sources report otherwise
[2] = target: T1, SARS-CoV-2 Spike Protein …; assay: Luminex bead binding, supernatant; settings: remark: other sources report otherwise; remark: listed apart in the source

Binder	Binding signal (MFI) [1] [MFI]	Binding signal (MFI) [2] [MFI]
mAb10998 (antibody, V domains shown) VH: EVQLVESGGGLVHPGGSLRLSCAASGLTVSSNYMSWVRQAPGKGLEWVSVIYSGGSTYYADSVKGRFTISRHNSKNTLFLQMNSLRAEDTAVYYCARDRPITGTTLDVWGQGTTVTVSS VL: DIQMTQSPSSLFASVGDRVTITCRASQSISSYLNWYQQKPGKAPKLLIYAASSLQSGVPSRFSGSGSGTDFTLTISSLQPEDFAFYYCQQTYSTPPITFGQGTRLEIK	1850	3840
mAb11004 (antibody, V domains shown) VH: QVQLVESGGGVVQPGRSLRLSCVASGFTFSIYGMDWVRQAPGKGLEWVAVISYDGSNKYYADSVKGRFTISRDNSKNTLYLQMNSLRPEDTAVYYCAKDREAAADAFDIWGQGTMVTVSS VL: DIQMTQSPSSVSASVGDRVTITCRASQGISSWLAWYQQKPGKAPKLLIYAASSLHSGVPSRFSGSGSGTDFTLTISSLQPEDFATYYCQQANSFRLTFGGGTKVEIK	3350	11300
mAb11006 (antibody, V domains shown) VH: EVQLVESGGGLVQPGGSLRLSCAASGFIVSRNYMSWVRQAPGKGLEWVSVIYSGGSTFYADSVKGRFTISRHNSKNTLYLQMNSLKAEDTAVYYCARELRGYFDYWGQGTLVTVSS VL: DIQLTQSPSFLSASVGDRVTITCWASQGISSYLAWYQQKPGKAPKLLIYAASTLQSGVPSRFSGSGSGTEFTLTISSLQPEDFATYYCQLLNSYPYTFGQGTKLEIK	5130	4740
mAb11008 (antibody, V domains shown) VH: EVQLVESGGGLVQPGGSLRLSCAASGFTVSSNYMTWVRQAPGKGLEWVSVIYSGGSTFYADSVKGRFTISRHNSENTLYLQMNSLRAEDTAVYYCARDLAAAGTDYWGQGALVTVSS VL: DIQLTQSPSFLSASVGDRVTITCWASQGISSYLAWYQQKPGKAPKLLIYAASTLQSGVPSRFSGSGSGTEFTLTISSLQPDDFATYYCQHLNSYLYTFGQGTKLEIK	4050	3180

— patent US20240043504A1
